Assay results published in paper PMC6430397, “The pharmacological properties of 3-arm or 4-arm DOTA constructs for conjugation to α-melanocyte-stimulating hormone analogues for melanoma imaging” (PLoS ONE, 2019).

Assays:
[1] = Partition coefficient, n-octanol / 0.1 M phosphate buffer; assay type: physicochemical; conditions: pH 7.4
Experimental: The partition coefficients of ^111In-labeled 3-arm and 4-arm DOTA-α-MSH were measured using 2.0 mL n-octanol as the organic phase and 2.0 mL 0.l M phosphate buffer as the aqueous phase (pH 7.4 for plasma). N-octanol and the buffer were pre-mixed twice using a mechanical mixer for 1 min at room temperature. Then, 20 µL radioactive sample were added and mixed twice using a mechanical mixer for 1 min at room temperature. The radioactivity of 200 uL of each phase was measured after centrifugation. Calculation of log (n-octanol/0.l M phosphate buffer) was performed.

[2] = Biological distribution in B16-F1 melanoma-bearing mice; assay type: in vivo, mouse; conditions: male, C57BL6, mouse, in vivo, iv, 37 kBq/mouse, total radioactivity, Biological distribution
Experimental: C57BL6 male mice (5 weeks old) were transplanted with B16-F1 cells (5 × 10^5 cells/100 μL) into the thigh of the mice. […] The mice were housed and continuously monitored each day for 2 weeks in a 12-hour light/12-hour dark cycle with free access to food and water. The tumor size reached 8.7 ± 2.8 mm at 2 weeks after transplant of cells. Two mice with tumor sizes of 13 and 15 mm were excluded from our experiments. Mice with a tumor size <10 mm were fasted with no food overnight with water supplied ad libitum before experiments.
For biological distribution studies, B16-F1-bearing mice were administered ^111In-labeled 3-arm or 4-arm DOTA-α-MSH via the tail vein (37 kBq/mouse). At 10, 30, 60, 120, and 180 min after injection, the mice were euthanized under isoflurane (n = 3 per time point), and the following tissues were collected: brain, lung, heart, stomach, liver, small intestine, large intestine, kidney, blood, muscle, and B16-F1 melanoma. Tissues were weighed, and radioactivity was quantified using an automated γ-ray counter to calculate the percent injected dose (%ID) or percent injected dose per gram of tissue (%ID/g).
For SPECT imaging, ^111In-labeled 3-arm or 4-arm DOTA-α-MSH was injected into the tail vein of four B16-F1-bearing mice in total (37 MBq/mouse). For SPECT imaging, acquisition was started at 10 min after injection and continued every 10 min for 180 min. The data were reconstructed using the ordered subset expectation maximization method with 16 subsets and six iterations including no scatter and attenuation correction. The voxel size was set to 0.8×0.8×0.8 mm. Post-reconstruction smoothing filtering was applied using a 1.0-mm Gaussian filter. […] In these images, three to five regions of interest were placed over the kidney, muscle, and B16-F1 melanoma in which accumulation could be seen, and the time activity curve of each was obtained as the %ID/g.

MC1-R = target: T1, MC1-R (Mus musculus, UniProt Q01727); conditions: endogenous ligand; cited from earlier work
T1 construct: host or cells: B16-F1 mouse melanoma cells
Source text: The melanocortin 1 receptor (MC1-R) is one of the most targeted melanoma antigens and belongs to the melanocortin family of G protein-coupled receptors, which consists of five receptor subtypes, MC1-R to MC5-R. MC1-R is expressed in nearly all primary and metastatic melanomas and 95% of uveal melanomas. MC1-R is an attractive receptor for molecular-targeted imaging and radionuclide therapy of melanoma. α-melanocyte-stimulating hormone (α-MSH), a tridecapeptide, is an endogenous ligand for the melanocortin family of receptors, with subnanomolar binding affinity to MC1-R [5].

T1 sequence (Q01727 whole entry): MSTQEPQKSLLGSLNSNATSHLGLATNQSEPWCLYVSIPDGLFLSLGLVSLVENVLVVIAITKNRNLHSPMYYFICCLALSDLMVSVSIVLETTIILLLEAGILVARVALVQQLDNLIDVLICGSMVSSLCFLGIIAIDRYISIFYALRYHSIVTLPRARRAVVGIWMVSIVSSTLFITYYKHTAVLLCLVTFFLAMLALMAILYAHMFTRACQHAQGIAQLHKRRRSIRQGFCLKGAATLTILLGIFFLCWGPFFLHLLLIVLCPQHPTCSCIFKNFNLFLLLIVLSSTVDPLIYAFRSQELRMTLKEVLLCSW

CSCC[C@H](NC(=O)[C@H](CO)NC(=O)[C@H](Cc1ccc(O)cc1)NC(=O)[C@H](CO)NC(C)=O)C(=O)N[C@@H](CCC(=O)O)C(=O)N[C@@H](Cc1c[nH]cn1)C(=O)N[C@@H](Cc1ccccc1)C(=O)N[C@@H](CCCNC(=N)N)C(=O)N[C@@H](Cc1c[nH]c2ccccc12)C(=O)NCC(=O)N[C@@H](CCCCNC(=O)CN1CCN(CC(=O)O)CCN(CC(=O)O)CCN(CC(=O)O)CC1)C(=O)N1CCC[C@H]1C(=O)N[C@H](C(=O)O)C(C)C [^111In-labeled 3-arm DOTA-α-MSH, metal not drawn]
logD [1]: -0.28 ± 0.03
tissue uptake at 10 min ([2]; Blood): 3.11 %ID/g
tissue uptake at 0.5 h ([2]; Blood): 1.91 %ID/g
tissue uptake at 1 h ([2]; Blood): 0.89 %ID/g
tissue uptake at 2 h ([2]; Blood): 0.21 %ID/g
tissue uptake at 3 h ([2]; Blood): 0.05 %ID/g
tissue uptake at 10 min ([2]; Brain): 0.04 %ID/g
tissue uptake at 0.5 h ([2]; Brain): 0.05 %ID/g
tissue uptake at 1 h ([2]; Brain): 0.05 %ID/g
tissue uptake at 2 h ([2]; Brain): 0.03 %ID/g
tissue uptake at 3 h ([2]; Brain): 0.02 %ID/g
tissue uptake at 10 min ([2]; Heart): 0.74 %ID/g
tissue uptake at 0.5 h ([2]; Heart): 0.66 %ID/g
tissue uptake at 1 h ([2]; Heart): 0.46 %ID/g
tissue uptake at 2 h ([2]; Heart): 0.14 %ID/g
tissue uptake at 3 h ([2]; Heart): 0.06 %ID/g
tissue uptake at 10 min ([2]; Kidney): 23.6 %ID/g
tissue uptake at 0.5 h ([2]; Kidney): 18.4 %ID/g
tissue uptake at 1 h ([2]; Kidney): 11.9 %ID/g
tissue uptake at 2 h ([2]; Kidney): 8.42 %ID/g
tissue uptake at 3 h ([2]; Kidney): 7.07 %ID/g
tissue uptake dose at 10 min ([2]; Large intestine): 0.03 %ID
tissue uptake dose at 0.5 h ([2]; Large intestine): 0.08 %ID
tissue uptake dose at 1 h ([2]; Large intestine): 0.09 %ID
tissue uptake dose at 2 h ([2]; Large intestine): 0.05 %ID
tissue uptake dose at 3 h ([2]; Large intestine): 0.04 %ID
tissue uptake at 10 min ([2]; Liver): 2.3 %ID/g
tissue uptake at 0.5 h ([2]; Liver): 1.15 %ID/g
tissue uptake at 1 h ([2]; Liver): 1.12 %ID/g
tissue uptake at 2 h ([2]; Liver): 1.23 %ID/g
tissue uptake at 3 h ([2]; Liver): 0.72 %ID/g
tissue uptake at 10 min ([2]; Lung): 0.51 %ID/g
tissue uptake at 0.5 h ([2]; Lung): 0.66 %ID/g
tissue uptake at 1 h ([2]; Lung): 0.31 %ID/g
tissue uptake at 2 h ([2]; Lung): 0.27 %ID/g
tissue uptake at 3 h ([2]; Lung): 0.1 %ID/g
tissue uptake at 10 min ([2]; Melanoma): 1.71 %ID/g
tissue uptake at 0.5 h ([2]; Melanoma): 1.81 %ID/g
tissue uptake at 1 h ([2]; Melanoma): 2.49 %ID/g
tissue uptake at 2 h ([2]; Melanoma): 3.36 %ID/g
tissue uptake at 3 h ([2]; Melanoma): 3.51 %ID/g
tissue uptake at 10 min ([2]; Muscle): 0.21 %ID/g
tissue uptake at 0.5 h ([2]; Muscle): 0.2 %ID/g
tissue uptake at 1 h ([2]; Muscle): 0.15 %ID/g
tissue uptake at 2 h ([2]; Muscle): 0.09 %ID/g
tissue uptake at 3 h ([2]; Muscle): 0.05 %ID/g
tissue uptake dose at 10 min ([2]; Small intestine): 0.04 %ID
tissue uptake dose at 0.5 h ([2]; Small intestine): 0.08 %ID
tissue uptake dose at 1 h ([2]; Small intestine): 0.09 %ID
tissue uptake dose at 2 h ([2]; Small intestine): 0.12 %ID
tissue uptake dose at 3 h ([2]; Small intestine): 0.1 %ID
tissue uptake dose at 10 min ([2]; Stomach): 0.06 %ID
tissue uptake dose at 0.5 h ([2]; Stomach): 0.1 %ID
tissue uptake dose at 1 h ([2]; Stomach): 0.12 %ID
tissue uptake dose at 2 h ([2]; Stomach): 0.11 %ID
tissue uptake dose at 3 h ([2]; Stomach): 0.12 %ID

α-melanocyte-stimulating hormone [α-MSH]
binding affinity to MC1-R (MC1-R): subnanomolar
